The target of this test is T1, ectodomain of human CD4 (26-396 amino acid residues), recombinant (human, UniProt P01730 26-396).
T1 construct: CD4, human, ectodomain, residues 26-396; Cloned into pfastbac1 with the GP64 signal peptide for secretion and a preScission protease site; also called recombinant CD4; CD4 protein
As to the kind of experiment: ELISA; 5 μg salivary gland protein coated overnight at 4°C on high binding 96-well plates, blocked with 1% BSA in PBST; 1 μg CD4 or DC-SIGN ectodomain added at 37°C for 1 h; detected with rabbit anti-CD4 or HRP anti-DC-SIGN monoclonal antibody, TMB, read at 450 nm. As to conditions: both partners purified. In general terms: An ELISA detects its analyte on a solid surface through an enzyme-linked reagent.

B1: recombinant Ae. aegypti venom allergen 1 (AaVA-1) (natural protein, Aedes aegypti, UniProt A0A1S4EWW7 22-255, looked up)
chain: NYCDQSLCRRGPHVACNAPTQFGSACGQEPKFVKMDARMKNLLLKKHNELRAEIACGKHGFPQAARMPTLVWDDELAHIASFNARKCIFAHDKCRNTREFKFAGQNLAITAFAGYNFQAADRAENFTQEWFNEHKDCPKSYVDSYPMSHSGPQIGHFTQMVNDRAWKMGCSMVHYKNGRVIKYYLVCNYSMTNMIEEPIYTRGSAGSKCQTGQNPQYRGLCSPREKVRSESYRG
notes: Made with the GP64 signal peptide, so its own signal peptide was probably left out; also called AVAa-1
Regarding B1, the binding result is “binds”.

These data come from paper PMC9484696, “Identification of Aedes aegypti salivary gland proteins interacting with human immune receptor proteins” (PLoS Neglected Tropical Diseases, 2022).
